Assay results taken from publication PMC4735030.

Target: porcine colonic mucins (porcine)
Assay: SPR

Kd: 98.2 nM | koff: 0.00279 s⁻¹ | kon: 28400 M⁻¹ s⁻¹
Substance: recombinant BL0675 A type with a C-terminal 6 x His tag (natural protein)
